According to paper PMC8766848, “The Structural Basis of Babesia orientalis Lactate Dehydrogenase” (Frontiers in Cellular and Infection Microbiology, 2022):

Tests used:
[1] = system: T1, CC(=O)c1ccc[n+]([C@@H]2O[C@H](COP(=O)([O-])OP(=O)(O)OC[C@H]3O[C@@H](n4cnc5c(N)ncnc54)[C@H](O)[C@@H]3O)[C@@H](O)[C@H]2O)c1; test: enzyme kinetics (Km), lactate to pyruvate, comparison enzyme; type: biochemical, Babesia microti; settings: varied: cofactor
T1 construct: recombinant rBmLDH

[2] = molecular target: recombinant Babesia orientalis lactate dehydrogenase (Babesia orientalis); test: native gel or EMSA; 8% blue native-PAGE of purified rBoLDH, without sodium dodecyl sulfate; ~160 kDa band
[3] = molecular target: recombinant Babesia orientalis lactate dehydrogenase (Babesia orientalis); test: crystal structure; apo rBoLDH, hanging drop vapour diffusion at 20°C, 1 M lithium chloride, 0.1 M sodium acetate, 25-30% PEG 6000; space group P1, 2.67 Å

Substance	Km [1]	stoichiometry N [2]	stoichiometry N [3]
Babesia microti lactate dehydrogenase (BmLDH) (Babesia microti strain RI)	880 ± 120 µM	–	–
recombinant Babesia orientalis lactate dehydrogenase (enzyme)	–	4	4
